Laboratory results from US20260242483A1.

Experiments:
[1] = target: human BTN3A as expressed on human cells (PBMC, Daudi, tumour cell lines, HUVEC, HEK293T WT) (human); test: flow cytometry on human PBMCs
[2] = target: human BTN3A as expressed on human cells (PBMC, Daudi, tumour cell lines, HUVEC, HEK293T WT) (human); test: cell-based or functional assay
[3] = target: human BTN3A as expressed on human cells (PBMC, Daudi, tumour cell lines, HUVEC, HEK293T WT) (human); test: flow cytometry on Daudi lymphoma cells
[4] = target: cynomolgus BTN3A as expressed on cynomolgus PBMCs (cynomolgus monkey (Macaca fascicularis)); test: flow cytometry on cynomolgus PBMCs

EC50 [1]: 3.6 µg/mL | Functional assay (AML resistant) (γδT cell-based, EC50, µg/mL) [2]: 0.42 µg/mL | Functional assay (AML sensitive) (γδT cell-based, EC50, µg/mL) [2]: 0.12 µg/mL | Functional assay (Daudi) (γδT cell-based, EC50, µg/mL) [2]: 0.02 µg/mL | EC50 [3]: 1.44 µg/mL | EC50 [4]: 7.75 µg/mL
B1: Chimeric 7.2 (VH0/Vκ0) (antibody, V domains shown)
VH: QVQLQQSGAELVKPGASVKLSCKASGYIFTRYYMYWVKQRPGQGLEWIGEINPNNGGTKFNEKFKNKATLTVDKFSSTAYMQLRSLTSEDSAVYYCSREDDYDGTPFAMDYWGQGTSVTVSS
VL: DIQMNQSPSSLSASLGDTITITCHASQNINVWLSWYQQKPGNIPKLLIYKASNLHTGVPSRFTGSGSGTGFTLTISSLQPEDIATYYCQQGQTYPYTFGGGTKLEIK
